The text below walks through data of PMC11255114.

Assay [1] concerns the target Anti-TRAP (AT), mature deformylated form, trimer AT3 (assembly unit) (UniProt O31466+O31466). Description: Sedimentation velocity analytical ultracentrifugation (interference optics, 50,000 rpm). To be noted: pH 8; 25 °C; 100 mM NaCl plus 50 mM sodium phosphate; 50 mM sodium phosphate at pH 7, 7.25, 7.5 and 8 (Fig. 4 caption also lists pH 7.75).
In assay [2] the target is N-terminal formylmethionine Anti-TRAP (fAT) of Bacillus subtilis (Bacillus subtilis). In words: NMR solution structure; fAT3, data at 55 °C; NOEs, torsion angles, RDCs, three-fold symmetry and SAXS restraints; homo-trimer.
For assay [3] the target is unchanged. In words: SAXS; fAT at 1, 2, 3.3, 5 and 10 mg/mL in 50 mM sodium phosphate pH 8, 100 mM NaCl, 200 µM ZnCl2, 1 mM TCEP; SIBYLS beamline; deconvolution into trimer and dodecamer.
Assay [4] shares this target. Description: NMR spectra (1H-15N HSQC); 3 mM fAT in 20 mM d11-Tris pH 7.5, 20 mM β-mercaptoethanol, 1 mM ZnCl2; also a pH series 6.5 to 8.0 at 25 °C; step looked at for non-binding: trimers to dodecamer.
In assay [5] the target is Bacillus subtilis Anti-TRAP protein (AT), mature (deformylated) (Bacillus subtilis). In words: AUC; sedimentation velocity, interference optics, 25 °C, 50,000 rpm; 50 mM sodium phosphate, 100 mM NaCl, 0.5 mM tryptophan, 0.02 % NaN3, pH 7 to 8; 65-500 µM AT monomer; global fit in SEDPHAT to a three-state model, 4 AT3 to 2 AT6 to AT12; apparent rate constants, KD from their ratio.

The target of assay [6] is N-formylmethionine Anti-TRAP (fAT), trimer fAT3 none (N-terminal formylation of Met1) (UniProt O31466). In words: Small-angle X-ray scattering (SIBYLS beamline, ALS). To be noted: pH 8, 100 mM NaCl, 50 mM sodium-phosphate.

On to “Anti-TRAP (AT), mature deformylated form, trimer AT3 (assembly unit)”, for which the “equilibrium (dissociation) constant, step 2 (2 AT6 <-> AT12)” value in assay [1] was 0.05 to 50 µM (upper end of range). Regarding “N-terminal formylmethionine Anti-TRAP (fAT) of Bacillus subtilis (natural protein)”, the stoichiometry N in assay [2] and in assay [4] was 3 throughout. The same substance yielded a percent dodecamer in assay [3] of less than 3%. On to “Bacillus subtilis Anti-TRAP protein (AT), mature (deformylated) (natural protein)”, for which, in assay [5], the KD of the first step (two AT3 to AT6) fell in the range of 20 to 90 µM and the stoichiometry N came to 6. As for “N-formylmethionine Anti-TRAP (fAT), trimer fAT3 none (N-terminal formylation of Met1)”, in assay [6], the “fraction of dodecamer in fAT by SAXS deconvolution” value is reported as less than 3% at 10 mg/mL.
